Reference: US20100278837A1, “Compositions And Methods For Reducing Cancer And Inflammation” (The Regents of the University of California, priority 2009, published 2010)
Blank lines part the entries; values can stand above or below the molecule they belong to.

B1: murine integrin α4Y991A β1 of CD11b+ myeloid cells from α4Y991A knockin mice (receptor, mouse)
chain 1: YNLDPENALLYQGPSGTLFGYSVVLHSHGSKRWLIVGAPTASWLSNASVVNPGAIYRCGIRKNPNQTCEQLQSGSPSGEPCGKTCLEERDNQWLGVTLSRQPGENGSIVTCGHRWKNIFYMKSDNKLPTGICYVMPSDLRTELSKRMAPCYKDYTRKFGENFASCQAGISSFYTQDLIVMGAPGSSYWTGTVFVYNITTNQYKAFVDRQNQVKFGSYLGYSVGAGHFRSPHTTEVVGGAPQHEQIGKAYIFSIDENELNIVYEMKGKKLGSYFGASVCAVDLNADGFSDLLVGAPMQSTIREEGRVFVYINSGMGAVMVEMERVLVGSDKYAARFGESIANLGDIDNDGFEDIAIGAPQEDDLRGAVYIYNGRVDGISSTYSQRIEGQQISKSLRMFGQSISGQIDADNNGYVDVAVGAFQSDSAVLLRTRPVVIVEASLSHPESVNRTKFDCTENGLPSVCMHLTLCFSYKGKEVPGYIVLFYNVSLDVHRKAESPSRFYFFSNGTSDVITGSIRVSSSGEKCRTHQAFMRKDVRDILTPIHVEATYHLGHHVITKRNTEEFPPLQPILQQKKEKDVIRKMINFARFCAYENCSADLQVSAKVGFLKPYENKTYLAVGSMKTIMLNVSLFNAGDDAYETTLNVQLPTGLYFIKILDLEEKQINCEVTESSGIVKLACSLGYIYVDRLSRIDISFLLDVSSLSRAHEDLSISVHASCENEGELDQVRDNRVTLTIPLRYEVMLTVHGLVNPTSFVYGSSEENEPETCMAEKLNLTFHVINTGISMAPNVSVKIMVPNSFLPQDDKLFNVLDVQTTTGQCHFKHYGRECTFAQQKGIAGTLTDIVKFLSKTDKRLLYCMKADQHCLDFLCNFGKMESGKEASVHIQLEGRPSILEMDETSSLKFEIKATAFPEPHPKVIELNKDENVAHVFLEGLHHQRPKRHFTIIIITISLLLGLIVLLLISCVMWKAGFFKRQYKSILQEENRRDSWSAVNSKSNDD
chain 2: QTDKNRCLKANAKSCGECIQAGPNCGWCTNTTFLQEGMPTSARCDDLEALKKKGCQPSDIENPRGSQTIKKNKNVTNRSKGMAEKLRPEDITQIQPQQLLLKLRSGEPQKFTLKFKRAEDYPIDLYYLMDLSYSMKDDLENVKSLGTDLMNEMRRITSDFRIGFGSFVEKTVMPYISTTPAKLRNPCTSEQNCTSPFSYKNVLSLTDRGEFFNELVGQQRISGNLDSPEGGFDAIMQVAVCGSLIGWRNVTRLLVFSTDAGFHFAGDGKLGGIVLPNDGQCHLENNVYTMSHYYDYPSIAHLVQKLSENNIQTIFAVTEEFQPVYKELKNLIPKSAVGTLSGNSSNVIQLIIDAYNSLSSEVILENSKLPDGVTINYKSYCKNGVNGTGENGRKCSNISIGDEVQFEISITANKCPNKESETIKIKPLGFTEEVEVVLQFICKCNCQSHGIPASPKCHEGNGTFECGACRCNEGRVGRHCECSTDEVNSEDMDAYCRKENSSEICSNNGECVCGQCVCRKRDNTNEIYSGKFCECDNFNCDRSNGLICGGNGVCRCRVCECYPNYTGSACDCSLDTGPCLASNGQICNGRGICECGACKCTDPKFQGPTCETCQTCLGVCAEHKECVQCRAFNKGEKKDTCAQECSHFNLTKVESREKLPQPVQVDPVTHCKEKDIDDCWFYFTYSVNGNNEAIVHVVETPDCPTGPDIIPIVAGVVAGIVLIGLALLLIWKLLMIIHDRREFAKFEKEKMNAKWDTGENPIYKSAVTTVVNPKYEGK
notes: whole, on cells; It may be mature-chain numbering and may not match the precursor entry; also called α4YA; YA

Experiments:
[1] = system: CD11b+ cells adhesion to endothelium; assay: Adhesion of CD11b+ cells to endothelium (Example 1 adhesion assay); assay type: cell-based, murine; conditions: SDF-1α, TCM or IL-1β (and other chemoattractant) induced
Experimental: TCM was prepared from serum-free media cultured on LLC cells for 18 h and filtered through 0.22 μm filters. 10^5 calcein-AM labelled human or murine CD11b+ cells in TCM or DMEM containing 200 ng/ml SDF-1α, IL-1β, IL-6, IL-8 or VEGF-A (R&D Systems) were incubated on HUVEC monolayers or on plastic plates coated with 5 μg/ml recombinant soluble VCAM-1 (R&D Systems). Adherent cells were quantified using a fluorescence activated plate reader (GeniosPro, TECAN). In some assays, cells were also incubated in 25 μg/ml anti-integrin α4β1 (PS2 for murine cells and HP2/1 for human cells, gifts from Biogen-Idec) and isotype control antibodies (IgG2bk for murine cells and IgG1 for human cells). In some studies, cells were incubated in 10 μM pan PI3K inhibitors […] or TG020, in PI3kinase α inhibitor PI3K75, PI3kinase γ/δ inhibitor TG115 and an inert control.

integrin α4 = assay: Integrin α4 clustering in CD11b+ cells; assay type: cell-based; conditions: SDF-1α or IL-1β induced
Experimental: Activation of human CD29 (integrin β1 chain) in cytokine stimulated human CD11b+ cells was quantified by flow cytometry using HUTS-21 antibodies (BD Bioscience). Total β1 integrin levels were assessed using P4C10 antibodies (Chemicon). 2.5×10^6 freshly isolated human myeloid cells/ml in culture medium containing 5% FBS and 0.5% NaN3 were incubated in 10 μg/ml normal human immunoglobulin (12000C, Caltag) for 45 min on ice, then in 2 μg/ml SDF-1α, IL-1β, IL-6 or 1 mM Mn2+ plus 2.5 μg HUTS21, P4C10, or IgG2 control for 10 min at 37° C. followed by Alexa 488 goat-anti mouse antibodies for 20 min on ice. Expression levels of murine integrin α4 on bone marrow derived cells were determined by flow cytometry for PE-conjugated R1/2 (rat anti-CD49d antibody, eBioscience). To induce integrin α4 activation on human myeloid cells or murine WT and α4Y991A myeloid, purified CD11b+ cells were incubated with polystyrene microspheres (9.0 μm diameter, Bangs Laboratories) coated with TCM, 2 μg/ml SDF-1α or IL-1β overnight at 4° C. cells as previously described by Grabovsky et al., 2000. […] Samples were analyzed by Nikon CS1 spectral confocal on a Nikon TE2000E inverted microscopy. Images were captured using EZ-C13.00 imaging software and analyzed using Metamorph software.

[2] = biological target: T1, talin (murine, endogenous in bone marrow derived myeloid cells) (mouse, UniProt P26039 1-2541); assay: co-immunoprecipitation with PS/2, immunoblot (FIG. 3d)
T1 construct: Detected by immunoblot with anti-talin clone TD77
T1 sequence (P26039 whole entry): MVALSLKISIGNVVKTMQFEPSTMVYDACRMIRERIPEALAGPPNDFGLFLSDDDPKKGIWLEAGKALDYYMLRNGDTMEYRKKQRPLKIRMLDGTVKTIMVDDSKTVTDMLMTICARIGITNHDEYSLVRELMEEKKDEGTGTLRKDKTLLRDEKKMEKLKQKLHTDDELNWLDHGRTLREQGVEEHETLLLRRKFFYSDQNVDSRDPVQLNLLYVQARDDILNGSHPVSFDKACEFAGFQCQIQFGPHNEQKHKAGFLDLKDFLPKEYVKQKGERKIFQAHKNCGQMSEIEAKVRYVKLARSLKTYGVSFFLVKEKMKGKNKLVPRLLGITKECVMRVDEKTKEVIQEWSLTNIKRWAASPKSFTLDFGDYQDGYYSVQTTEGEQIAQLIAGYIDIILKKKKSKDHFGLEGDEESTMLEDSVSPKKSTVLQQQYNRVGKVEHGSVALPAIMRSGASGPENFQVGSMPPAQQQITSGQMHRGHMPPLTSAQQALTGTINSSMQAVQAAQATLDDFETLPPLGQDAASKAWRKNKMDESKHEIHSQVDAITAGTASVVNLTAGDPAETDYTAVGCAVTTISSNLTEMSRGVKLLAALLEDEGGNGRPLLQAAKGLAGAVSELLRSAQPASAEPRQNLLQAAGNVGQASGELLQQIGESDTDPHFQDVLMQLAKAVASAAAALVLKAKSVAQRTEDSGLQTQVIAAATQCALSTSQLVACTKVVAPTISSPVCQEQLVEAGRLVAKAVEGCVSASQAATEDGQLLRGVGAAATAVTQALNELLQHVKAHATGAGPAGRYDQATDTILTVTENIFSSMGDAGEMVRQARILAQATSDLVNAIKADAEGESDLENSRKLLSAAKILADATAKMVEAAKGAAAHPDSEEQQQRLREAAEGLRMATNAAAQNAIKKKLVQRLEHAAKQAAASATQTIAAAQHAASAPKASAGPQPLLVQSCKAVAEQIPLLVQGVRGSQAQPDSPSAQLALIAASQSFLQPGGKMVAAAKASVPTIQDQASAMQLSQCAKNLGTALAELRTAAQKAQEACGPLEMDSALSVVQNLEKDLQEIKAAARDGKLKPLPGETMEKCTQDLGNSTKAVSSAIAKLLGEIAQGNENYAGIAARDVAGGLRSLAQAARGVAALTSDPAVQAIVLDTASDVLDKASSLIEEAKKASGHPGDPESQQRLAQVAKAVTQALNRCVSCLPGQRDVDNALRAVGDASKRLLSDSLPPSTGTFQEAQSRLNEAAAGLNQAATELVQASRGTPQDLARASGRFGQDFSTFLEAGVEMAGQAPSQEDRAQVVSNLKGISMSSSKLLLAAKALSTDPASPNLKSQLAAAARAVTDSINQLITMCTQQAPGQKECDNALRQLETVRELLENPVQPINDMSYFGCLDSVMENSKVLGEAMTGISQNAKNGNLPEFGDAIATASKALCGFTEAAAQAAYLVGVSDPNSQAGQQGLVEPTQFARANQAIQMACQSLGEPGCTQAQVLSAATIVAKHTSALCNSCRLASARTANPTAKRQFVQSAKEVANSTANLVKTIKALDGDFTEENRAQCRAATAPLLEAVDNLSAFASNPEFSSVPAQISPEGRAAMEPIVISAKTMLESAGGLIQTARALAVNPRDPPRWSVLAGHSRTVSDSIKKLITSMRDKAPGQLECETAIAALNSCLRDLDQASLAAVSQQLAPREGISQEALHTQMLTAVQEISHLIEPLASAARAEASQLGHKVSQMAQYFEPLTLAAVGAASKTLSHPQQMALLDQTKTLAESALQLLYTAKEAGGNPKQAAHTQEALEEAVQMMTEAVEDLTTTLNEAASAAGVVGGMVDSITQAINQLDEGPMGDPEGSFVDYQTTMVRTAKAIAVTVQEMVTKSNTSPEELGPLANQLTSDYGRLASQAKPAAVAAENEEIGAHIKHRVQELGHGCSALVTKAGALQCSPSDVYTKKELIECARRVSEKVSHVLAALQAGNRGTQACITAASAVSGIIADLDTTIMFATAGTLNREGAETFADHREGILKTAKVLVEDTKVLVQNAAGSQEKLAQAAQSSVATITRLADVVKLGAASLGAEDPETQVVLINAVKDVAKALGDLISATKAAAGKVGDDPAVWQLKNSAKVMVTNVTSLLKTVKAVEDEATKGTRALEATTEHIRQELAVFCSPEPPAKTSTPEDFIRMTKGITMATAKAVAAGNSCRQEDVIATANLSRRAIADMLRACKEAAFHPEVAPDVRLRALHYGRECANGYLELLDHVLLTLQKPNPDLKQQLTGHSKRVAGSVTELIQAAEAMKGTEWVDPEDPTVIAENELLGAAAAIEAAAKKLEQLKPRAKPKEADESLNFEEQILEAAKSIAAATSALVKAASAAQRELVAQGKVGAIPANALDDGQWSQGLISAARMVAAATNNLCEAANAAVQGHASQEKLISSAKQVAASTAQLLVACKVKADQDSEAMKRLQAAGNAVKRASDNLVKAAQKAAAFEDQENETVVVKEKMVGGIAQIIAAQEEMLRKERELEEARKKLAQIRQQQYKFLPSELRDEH
Experimental: BM monocytic cells from WT or α4Y991A mice were isolated as described above and treated with either DMEM or TCM for 30 min at 37° C. Cells were rinsed with cold PBS and lysed in Tris-buffered saline containing 1% CHAPS, 20 mM β-glycerophosphate, 1 mM Na₃VO₄, 5 mM NaF, 100 ng/ml microcystin-LR, and protease inhibitor cocktail. Clarified cell lysates were immunoprecipitated as follows: 1 mg total protein was precleared with 10 μl protein G-conjugated Dynabeads (Invitrogen) for 1 hr with rotation. Cleared lysates were incubated with 5 μg of rat anti-α4β1 (PS/2) antibody overnight, followed by adding 25 μl of protein G-conjugated Dynabeads for 3 h with rotation. Beads were washed three times with 1 ml cold PBS containing protease inhibitor cocktail. Protein precipitates were electrophoresed on 10% SDS-PAGE gels and immunoblotted with anti-integrin α4 (C-20, Santa Cruz Biotechnology), anti-talin (Clone TD77, Chemicon) or anti-paxillin (H-114, Santa Cruz Biotechnology) antibodies. Immune complexes were visualized using an enhanced chemiluminescence detection kit (Pierce).
BM cells (comprised of 80% CD11b+Gr1+ cells) from WT or α4Y991A mice were isolated as described above and treated with either DMEM or TCM for 30 min at 37° C. […]

[3] = biological target: B1; assay: flow cytometry of VCAM-1/Fc on CD11b+ cells (FIG. 27e)
Experimental: (§1) 5×10⁵ CD11b+ cells isolated from WT, α4Y991A, or PI3-kinase γ−/− mice (naïve or tumour-bearing) were incubated with 200 ng/ml IL-1β, SDF-1α, IL-6, TNFα, VEGF-A or medium together with 1 mg/ml mouseVCAM-1/humanFc fusion protein (R&D Systems) for 3 min. Cells were washed twice and incubated with donkey anti-human-FC-PE antibody (Jackson Immunoresearch) then analysed by FACs Calibur. Mean fluorescence intensity of treated cells was compared to that of unstimulated cells (basal). In other studies, cells from WT mice were untreated or were treated with 1 μM PI3-kinase α, β, or γ inhibitors for 30 min at 37° C. In some experiments GFP/RapV12 or GFP/RasV12 transfected CD11b+ cells were used. In this case, increased mean fluorescence intensity was measured for only GFP-positive cells.

[4] = biological target: T2, murine integrin α4β1 (wildtype) of CD11b+ myeloid cells (mouse, UniProt Q00651 41-1039; P09055 21-798); assay: flow cytometry, VCAM-1/Fc on murine CD11b+ cells (FIG. 27e)
T2 construct: whole, on cells; In the co-immunoprecipitations it was precipitated from CHAPS lysates of bone marrow cells with PS/2; also called VLA-4; VLA4
Experimental: as §1

Molecule: pertussis toxin
CD11b+ cell adhesion to endothelium [1]: inhibited SDF-1α, and TCM-induced but not IL-1β induced adhesion | integrin α4 clustering (integrin α4): blocked SDF-1α-induced integrin clustering

Molecule: B1
binding result [2]: no binding

binding result [3]: no binding | binding result [4]: binds
B2: mouseVCAM-1/humanFc fusion protein (R&D Systems) (Fc fusion, UniProt P29533 25-698, looked up)
chain: FKIEISPEYKTIAQIGDSMALTCSTTGCESPLFSWRTQIDSPLNAKVRTEGSKSVLTMEPVSFENEHSYLCTATCGSGKLERSIHVDIYSFPKDPEIQFSGPLEVGKPVTVKCLAPDIYPVYRLEIDLFKGDQLMNRQEFSSEEMTKSLETKSLEVTFTPVIEDIGKALVCRAKLHIDQIDSTLKERETVKELQVYISPRNTTISVHPSTRLQEGGAVTMTCSSEGLPAPEIFWGRKLDNEVLQLLSGNATLTLIAMRMEDSGVYVCEGVNLIGRDKAEVELVVQEKPFIVDISPGSQVAAQVGDSVVLTCAAIGCDSPSFSWRTQTDSPLNGVVRNEGAKSTLVLSSVGFEDEHSYLCAVTCLQRTLEKRTQVEVYSFPEDPVIKMSGPLVHGRPVTVNCTVPNVYPFDHLEIELLKGETTLMKKYFLEEMGIKSLETKILETTFIPTIEDTGKSLVCLARLHSGEMESEPKQRQSVQPLYVNVAPKETTIWVSPSPILEEGSPVNLTCSSDGIPAPKILWSRQLNNGELQPLSENTTLTFMSTKRDDSGIYVCEGINEAGISRKSVELIIQVSPKDIQLTVFPSKSVKEGDTVIISCTCGNVPETWIILKKKAKTGDMVLKSVDGSYTIRQAQLQDAGIYECESKTEVGSQLRSLTLDVKGKEHNKDYFSPE
notes: Bought reagent; Detected with donkey anti-human-FC-PE; also called VCAM-1/Fc; VCAM-1/FC; not shown: human Fc
